This data set in a line: self-splicing fitness, log relative to wild type (ln ratio); higher = more splicing; Tetrahymena group I intron in knt gene, E. coli kanamycin selection, DiMSum; sequences stand for … in CUCUCU…GGAGGGAAAAGUUAUCAGGCAUGCACCUGGUAGCUAGUCUUUAAACCAAUAGAUUGCAUCGGUUUAAAAGGCAAGACCGUCAAAUUGCGGGAAAGGGGUCAACAGCCGUUCAGUACCAAGUCUCAGGGGAAACUUUGAGAUGGCCUUGCAAAGGGUAUGGUAAUAAGCUGACGGACAUGGUCCUAACCACGCAGCCAAGUCCUAAGUCAACAGAUCUUCUGUUGAUAUGGAUGCAGUUCACAGACUAAAUGUCGGUCGGGGAAGAUGUAUUCUUCUCAUAAGAUAUAGUCGGACCUCUCCUUAAUGGGAGCUAGCGGAUGAAGUGAUGCAACACUGGAGCCGCUGGGAACUAAUUUGUAUGCGAAAGUAUAUUGAUUAGUUUUGGAGUACUCGUGGUCG
In a few lines:
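Library with all eight P1ex-region intron nucleotides randomised, intron inside the knt kanamycin-resistance gene on pET-22b(+), in E. coli BL21(DE3). Cells grew overnight at 37°C or 30°C on LB agar with or without 25 μg/mL kanamycin (plus 100 μg/mL carbenicillin, 50 μM IPTG, 0.2% rhamnose), in six replicate transformations. Pooled colonies were amplicon-sequenced on Illumina HiSeq 2500. DiMSum fitness is the error-weighted combination of wild-type-normalised replicate fold changes, kanamycin versus none.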

The values that follow come from the supplement of paper PMC7877785.

± gives the uncertainty stated by the source.

For GGCCAGCAAUAUUACGCACU, the “self-splicing fitness (ln)” value is -0.947 ± 0.13 (30 °C) and 0.319 ± 0.16 (37 °C). With GGCCAGCAAUAUUACGCCCC, the “self-splicing fitness (ln)” value (30 °C) is -1.65 ± 0.17 and the “self-splicing fitness (ln)” value (37 °C) was -0.851 ± 0.26. The matching figures for GGCCAGCAAUAUUACGCCGU: -2.39 ± 0.22 and -1.48 ± 0.19. On to GGCCAGCAAUAUUACGCGGC, for which the “self-splicing fitness (ln)” value (30 °C) is -3.46 ± 0.24. As to GGCCAGCAAUAUUACGCGUC, the “self-splicing fitness (ln)” value (30 °C) is -2.97 ± 0.12 and the “self-splicing fitness (ln)” value (37 °C) was -1.75 ± 0.15. The matching figures for GGCCAGCAAUAUUACGCUAU: -1.35 ± 0.054 and -1.02 ± 0.063. With GGCCAGCAAUAUUACGGACA, the “self-splicing fitness (ln)” value (30 °C) was -0.666 ± 0.12 and the “self-splicing fitness (ln)” value (37 °C) is -1.01 ± 0.17. With GGCCAGCAAUAUUACGGAGC, the “self-splicing fitness (ln)” value (30 °C) is -2.25 ± 0.18 and the “self-splicing fitness (ln)” value (37 °C) is -0.92 ± 0.21. With GGCCAGCAAUAUUACGGAUA, the “self-splicing fitness (ln)” value was -1.41 ± 0.12 (30 °C) and -1.02 ± 0.14 (37 °C). For GGCCAGCAAUAUUACGGCCA the same measures were -2.42 ± 0.16 and -1.03 ± 0.17.

In the case of GGCCAGCAAUAUUACGGCGA, the “self-splicing fitness (ln)” value was found to be 0.0969 ± 0.095 (30 °C) and 0.581 ± 0.11 (37 °C). On to GGCCAGCAAUAUUACGGGAA, for which the “self-splicing fitness (ln)” value by setting is: (30 °C) -1.98 ± 0.11; (37 °C) -0.198 ± 0.11. In the case of GGCCAGCAAUAUUACGGGCU, the “self-splicing fitness (ln)” value was -2.4 ± 0.2 (30 °C) and -3.16 ± 0.47 (37 °C). For GGCCAGCAAUAUUACGGGGA the same measures were -0.876 ± 0.068 and -0.469 ± 0.073.

Turning to GGCCAGCAAUAUUACGGUAA, the “self-splicing fitness (ln)” value runs as follows: (30 °C) -0.188 ± 0.053; (37 °C) 0.0838 ± 0.061. As to GGCCAGCAAUAUUACGUAAA, the “self-splicing fitness (ln)” value by setting is: (30 °C) -1.26 ± 0.11; (37 °C) -0.35 ± 0.14.

For the sequence GGCCAGCAAUAUUACGUAGG, the “self-splicing fitness (ln)” value is -2.19 ± 0.14 (30 °C) and -1.85 ± 0.18 (37 °C). For GGCCAGCAAUAUUACGUCGA the same measures were -2.72 ± 0.21 and -1.46 ± 0.2. In the case of GGCCAGCAAUAUUACGUUCU, the “self-splicing fitness (ln)” value runs as follows: (30 °C) -0.00519 ± 0.082; (37 °C) 0.108 ± 0.089. GGCCAGCAAUAUUACGUUUG: the “self-splicing fitness (ln)” value (30 °C) was -3.15 ± 0.14 and the “self-splicing fitness (ln)” value (37 °C) is -2.4 ± 0.18. As to GGCGAGCAAUAUUACGAAAA, the “self-splicing fitness (ln)” value (37 °C) was -2.97 ± 0.47.

As to GGCGAGCAAUAUUACGACAU, the “self-splicing fitness (ln)” value (30 °C) is -0.665 ± 0.015 and the “self-splicing fitness (ln)” value (37 °C) is -0.155 ± 0.034. As for GGCGAGCAAUAUUACGACUG, the “self-splicing fitness (ln)” value was -0.978 ± 0.24 (30 °C) and -0.589 ± 0.29 (37 °C). Regarding GGCGAGCAAUAUUACGAGCG, the “self-splicing fitness (ln)” value is, setting by setting: (30 °C) -0.88 ± 0.14; (37 °C) -0.433 ± 0.17. For GGCGAGCAAUAUUACGAUCG the same measures were -2.53 ± 0.21 and -0.978 ± 0.21. GGCGAGCAAUAUUACGCGCA: the “self-splicing fitness (ln)” value was -0.241 ± 0.17 (30 °C) and 0.253 ± 0.22 (37 °C).

On to GGCGAGCAAUAUUACGCGUG, for which the “self-splicing fitness (ln)” value is -1.15 ± 0.19 (30 °C) and -0.666 ± 0.2 (37 °C).

On to GGCGAGCAAUAUUACGCUGA, for which the “self-splicing fitness (ln)” value (30 °C) is -1.82 ± 0.2 and the “self-splicing fitness (ln)” value (37 °C) is -2.12 ± 0.18.

Consider GGCGAGCAAUAUUACGGAGA, for which the “self-splicing fitness (ln)” value (37 °C) is -1.69 ± 0.39. Regarding GGCGAGCAAUAUUACGGGAC, the “self-splicing fitness (ln)” value was -2.22 ± 0.2 (30 °C) and -1.1 ± 0.27 (37 °C). Consider GGCGAGCAAUAUUACGGGAU, for which the “self-splicing fitness (ln)” value (37 °C) was -2.21 ± 0.47. In the case of GGCGAGCAAUAUUACGUGAA, the “self-splicing fitness (ln)” value reads like this: (30 °C) -2.49 ± 0.12; (37 °C) -0.0823 ± 0.13. The matching figures for GGCGAGCAAUAUUACGUGCG: -1.65 ± 0.11 and -0.955 ± 0.1. The matching figures for GGCGAGCAAUAUUACGUUUA: -1.4 ± 0.087 and -0.372 ± 0.11. In the case of GGCUAGCAAUAUUACGACCC, the “self-splicing fitness (ln)” value by setting is: (30 °C) -1.79 ± 0.36; (37 °C) -0.966 ± 0.37. As to GGCUAGCAAUAUUACGACUC, the “self-splicing fitness (ln)” value is, setting by setting: (30 °C) 0.93 ± 0.14; (37 °C) 0.604 ± 0.26. The matching figures for GGCUAGCAAUAUUACGACUG: -1.54 ± 0.16 and -0.524 ± 0.22.

Take GGCUAGCAAUAUUACGAUUA: the “self-splicing fitness (ln)” value reads like this: (30 °C) -0.803 ± 0.085; (37 °C) -0.572 ± 0.079.
